According to patent publication US7279548 (CYTOGEN, dated 2007):
No end group written: not given here. *: point of attachment. Biotin = O=C1N[C@H]2[C@H](CS[C@H]2CCCCC(=O)*)N1

Key:
[1] = target: T1, WWP3 WW domain expressed as GST fusion protein (human); test: ELISA cross affinity mapping, GST-WW fusion
T1 construct: Whole WWP3 entry named; not shown: glutathione S-transferase (GST) fusion partner

[2] = target: T2, WWP1.4 WW domain expressed as GST fusion protein (human); test: ELISA cross affinity mapping, GST-WW fusion
T2 construct: Whole WWP1 entry named; not shown: glutathione S-transferase (GST) fusion partner

[3] = target: T3, WWP1.1 WW domain expressed as GST fusion protein (human); test: ELISA cross affinity mapping, GST-WW fusion
T3 construct: Whole WWP1 entry named; not shown: glutathione S-transferase (GST) fusion partner
T3 sequence (chain, as listed by the source): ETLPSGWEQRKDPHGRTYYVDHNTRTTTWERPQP

[4] = target: T4, WWP2.1 WW domain expressed as GST fusion protein (human); test: ELISA cross affinity mapping, GST-WW fusion
T4 construct: Whole WWP2 entry named; not shown: glutathione S-transferase (GST) fusion partner
T4 sequence (chain, as listed by the source): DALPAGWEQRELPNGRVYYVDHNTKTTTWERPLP

[5] = target: T5, WWP2.4 WW domain expressed as GST fusion protein (human); test: ELISA cross affinity mapping, GST-WW fusion
T5 construct: Whole WWP2 entry named; also called WW2.4; not shown: glutathione S-transferase (GST) fusion partner
T5 sequence (chain, as listed by the source): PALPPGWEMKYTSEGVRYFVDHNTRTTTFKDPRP

[6] = target: T6, WWP1.3 WW domain expressed as GST fusion protein (human); test: ELISA cross affinity mapping, GST-WW fusion
T6 construct: Label WWP1.3 follows the pattern of the printed labels; whole WWP1 entry named; not shown: glutathione S-transferase (GST) fusion partner
T6 sequence (chain, as listed by the source): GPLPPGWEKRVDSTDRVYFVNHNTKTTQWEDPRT

[7] = target: T7, WWP2.2 WW domain expressed as GST fusion protein (human); test: ELISA cross affinity mapping, GST-WW fusion
T7 construct: Whole WWP2 entry named; not shown: glutathione S-transferase (GST) fusion partner
T7 sequence (chain, as listed by the source): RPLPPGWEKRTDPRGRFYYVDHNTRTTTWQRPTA

[8] = target: T8, WWP1.2 WW domain expressed as GST fusion protein (human); test: ELISA cross affinity mapping, GST-WW fusion
T8 construct: Whole WWP1 entry named; not shown: glutathione S-transferase (GST) fusion partner
T8 sequence (chain, as listed by the source): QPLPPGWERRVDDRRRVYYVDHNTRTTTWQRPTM

[9] = target: T9, WWP2.3 WW domain expressed as GST fusion protein (human); test: ELISA cross affinity mapping, GST-WW fusion
T9 construct: Whole WWP2 entry named; not shown: glutathione S-transferase (GST) fusion partner
T9 sequence (chain, as listed by the source): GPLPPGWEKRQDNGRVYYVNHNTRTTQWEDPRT

[10] = target: T2, WWP1.4 WW domain expressed as GST …; test: cross affinity mapping, GST-WW fusion
[11] = target: T3, WWP1.1 WW domain expressed as GST …; test: cross affinity mapping, GST-WW fusion
[12] = target: T4, WWP2.1 WW domain expressed as GST …; test: cross affinity mapping, GST-WW fusion
[13] = target: T5, WWP2.4 WW domain expressed as GST …; test: cross affinity mapping, GST-WW fusion
[14] = target: T6, WWP1.3 WW domain expressed as GST …; test: cross affinity mapping, GST-WW fusion
[15] = target: T7, WWP2.2 WW domain expressed as GST …; test: cross affinity mapping, GST-WW fusion
[16] = target: T8, WWP1.2 WW domain expressed as GST …; test: cross affinity mapping, GST-WW fusion
[17] = target: T9, WWP2.3 WW domain expressed as GST …; test: cross affinity mapping, GST-WW fusion

T1 sequence (chain, as listed by the source): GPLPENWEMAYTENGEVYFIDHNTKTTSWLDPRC

Binder | binding result [1] | binding result [2] | binding result [3] | binding result [4] | binding result [5] | binding result [6] | binding result [7] | binding result [8] | binding result [9] | binding result [10] | binding result [11] | binding result [12] | binding result [13] | binding result [14] | binding result [15] | binding result [16] | binding result [17]
Biotin-SGSGYVQPPPPPYPGPM (Tested as SA-AP complex) [WBP-2A peptide (biotin-SGSGYVQPPPPPYPGPM)] | binds | – | – | – | – | – | – | – | – | – | – | – | – | – | – | – | –
Biotin-SGSGYVQPPPAPYPGPM [WBP-2A-Pro4 (alanine substitution of the third proline of the PPPPY motif of WBP-2A)] | no binding | no binding | no binding | no binding | no binding | no binding | no binding | no binding | no binding | – | – | – | – | – | – | – | –
Biotin-PGTPPPNHDSLRL [ENaCβ-Y618H peptide] | – | – | – | – | – | – | – | – | – | no binding | no binding | no binding | no binding | no binding | no binding | no binding | no binding
Biotin-SGSGPGTPYPPPPEFY (Tested as SA-AP complex) [WBP-2B peptide (biotin-SGSGPGTPYPPPPEFY)] | no binding | no binding | no binding | no binding | no binding | no binding | no binding | no binding | no binding | – | – | – | – | – | – | – | –
Biotin-SGSGPGTPPPPYTVGPGY (Tested as streptavidin-enzyme complex) [WBP-1 peptide (biotin-SGSGPGTPPPPYTVGPGY)] | no binding | – | – | – | – | – | – | – | – | – | – | – | – | – | – | – | –
NRLDLPPAKSYEQ (also: biotinylated, Short peptide) | – | – | – | – | – | – | – | – | – | no binding | no binding | no binding | no binding | no binding | no binding | no binding | no binding
NRLDLPPAETFED (also: biotinylated, Short peptide) | – | – | – | – | – | – | – | – | – | no binding | no binding | no binding | no binding | no binding | no binding | no binding | no binding
Biotin-PGTPPLNYDSLRL [ENaCβ-P616L peptide] | – | – | – | – | – | – | – | – | – | no binding | no binding | no binding | no binding | no binding | no binding | no binding | no binding
Biotin-SGSGPGTPPAPYTVGPGY (not fully specified) [WBP-1-Pro3 (alanine substitution at the third proline position of the PPPPY motif of WBP-1)] | – | no binding | no binding | no binding | no binding | no binding | no binding | no binding | no binding | – | – | – | – | – | – | – | –
